# From article PMC4872093, “Structural insights into DNA sequence recognition by Type ISP restriction-modification enzymes”
# T1: LlaGIΔN (UniProt Q93R01 1-1+166-1570, internal_change)
# T1 sequence: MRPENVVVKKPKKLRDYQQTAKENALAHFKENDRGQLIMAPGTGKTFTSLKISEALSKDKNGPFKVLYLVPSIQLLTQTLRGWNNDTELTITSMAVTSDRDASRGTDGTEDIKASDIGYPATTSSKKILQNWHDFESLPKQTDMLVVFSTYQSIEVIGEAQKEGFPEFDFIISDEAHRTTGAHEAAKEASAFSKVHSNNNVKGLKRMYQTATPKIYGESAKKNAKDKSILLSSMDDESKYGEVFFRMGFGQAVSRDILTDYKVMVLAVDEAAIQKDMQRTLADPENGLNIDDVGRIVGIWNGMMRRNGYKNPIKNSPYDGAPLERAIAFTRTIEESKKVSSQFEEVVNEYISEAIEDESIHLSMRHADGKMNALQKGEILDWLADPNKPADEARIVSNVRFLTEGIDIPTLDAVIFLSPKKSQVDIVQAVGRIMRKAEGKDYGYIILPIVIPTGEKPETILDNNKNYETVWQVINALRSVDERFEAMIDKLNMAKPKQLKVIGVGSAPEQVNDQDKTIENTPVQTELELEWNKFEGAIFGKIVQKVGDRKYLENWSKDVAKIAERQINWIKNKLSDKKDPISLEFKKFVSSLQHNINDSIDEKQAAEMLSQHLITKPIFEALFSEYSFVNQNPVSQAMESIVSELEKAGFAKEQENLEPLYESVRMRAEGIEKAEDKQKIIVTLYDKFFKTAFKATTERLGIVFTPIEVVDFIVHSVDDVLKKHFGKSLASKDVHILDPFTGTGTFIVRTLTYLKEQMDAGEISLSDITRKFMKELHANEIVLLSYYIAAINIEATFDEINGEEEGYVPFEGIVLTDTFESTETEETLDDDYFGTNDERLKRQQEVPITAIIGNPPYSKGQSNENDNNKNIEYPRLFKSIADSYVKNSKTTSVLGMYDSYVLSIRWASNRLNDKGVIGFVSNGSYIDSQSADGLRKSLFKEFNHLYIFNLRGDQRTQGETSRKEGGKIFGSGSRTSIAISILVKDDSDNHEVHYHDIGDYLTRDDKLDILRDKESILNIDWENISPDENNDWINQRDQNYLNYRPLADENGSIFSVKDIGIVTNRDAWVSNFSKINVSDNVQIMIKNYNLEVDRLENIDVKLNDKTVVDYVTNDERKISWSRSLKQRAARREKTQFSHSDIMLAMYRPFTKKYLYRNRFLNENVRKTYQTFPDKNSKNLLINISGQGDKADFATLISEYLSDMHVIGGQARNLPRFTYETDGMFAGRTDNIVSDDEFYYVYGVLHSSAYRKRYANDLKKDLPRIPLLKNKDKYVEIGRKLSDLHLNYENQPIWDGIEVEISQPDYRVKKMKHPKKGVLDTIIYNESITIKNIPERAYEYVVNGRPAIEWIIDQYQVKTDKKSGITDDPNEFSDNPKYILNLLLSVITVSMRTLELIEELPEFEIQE
# B1: LlaGIΔN co-crystal duplex (22 bp) (dsDNA)
# DNA 1: TTAGCTAATAGACTGGATGGAGG
# DNA 2: TCCTCCATCCAGTCTATTAGCTA
# B2: LlaGI co-crystal duplex (28 bp) (dsDNA)
# DNA 1: GCTCTAGCTAATAGACTGGATGGAGGTG
# DNA 2: CACCTCCATCCAGTCTATTAGCTAGAGC
# Legend:
# LlaGIΔN = target: T1, LlaGIΔN; assay: X-ray crystallography, 2.84 A; no AdoMet; target adenine flipped; EMSA: 50 mM Tris-HCl pH 7.4, 100 mM NaCl, 10 mM MgCl2, 0.01 mg/ml BSA, 1 mM DTT, 10% glycerol, 4 C. Crystals at 291 K: LlaGIΔN 100 mM Tris-HCl pH 7.4, 20% PEG 20000, 4% PEG 550 MME, 150-250 mM Na acetate; LlaGI 100 mM MES pH 5.6, 300 mM KCl, 6.5% PEG 20000; details: protein: recombinant; 5' overhang 1 nt (T) on both strands, 22 bp paired
# [1] = target: LlaGI full-length (crystal) (UniProt Q93R01 1-1570, D78A); assay: X-ray crystallography, 7.4 A; EMSA: 50 mM Tris-HCl pH 7.4, 100 mM NaCl, 10 mM MgCl2, 0.01 mg/ml BSA, 1 mM DTT, 10% glycerol, 4 C. Crystals at 291 K: LlaGIΔN 100 mM Tris-HCl pH 7.4, 20% PEG 20000, 4% PEG 550 MME, 150-250 mM Na acetate; LlaGI 100 mM MES pH 5.6, 300 mM KCl, 6.5% PEG 20000; details: protein: recombinant; blunt
Binder,binding result (LlaGIΔN),binding result [1]
B1,binds,–
B2,–,binds
